US20250163130A1, “LIGAND GATED ION CHANNELS AND METHODS OF USE” (Trames Bio, Inc., priority 2022, published 2025)

Assays:
Format in all cases: cell-based
[1] = molecular target: T1, CODA1237 (Homo sapiens, UniProt P36544, F159M/H163T/I152M/R155K/V154L/W156N/Y151P); assay: Anion reporter (YFP quench) plate assay, ligand response of cells expressing CODA1237 compared with CODA71; conditions: FIG. 1, various ligand doses
T1 construct: expressed in transfected cells; host or cells: Lenti-X 293T (LX293T, Clontech) stably expressing mutant YFP (H148Q/I152L) reporter

[2] = test system: HEK293T cells
[3] = test system: Lenti-X 293T cells expressing mutant YFP reporter; assay: Anion reporter (YFP quench) plate assay, responsiveness of engineered receptors to acetylcholine or TC-5619; conditions: FIG. 3, increasing doses of acetylcholine

Molecule | Responsiveness (percent quench of YFP fluorescence) of cells expressing CODA1237 compared with cells expressing CODA71 [1] | Surface expression level (mean fluorescent intensity of α-bungarotoxin staining positive cells) [2] | Responsiveness to acetylcholine (percent quench of YFP) using CODA71 as the reference point [3] | Percentage of surface expressing (α-bungarotoxin staining positive) cells [2]
O=C(N[C@@H]1CN2CCC1CC2)c1n[nH]c2ccccc12 [RG3487] | more responsive |  |  | 
c1ccc(-c2nnc(O[C@@H]3C4CC5C[C@H]3CN(C5)C4)s2)cc1 [ABT-126] | more responsive |  |  | 
CODA1298: α7-nAChR(Gly-cys) LBD: GlyRα2 IPD, SEQ ID NO: 65 comprising T225I mutation (protein, CHRNA7 (Cys-loop)/GLRA2) MRCSPGGVWLALAASLLHVSLQGEFQRKLYKELVKNYNPLERPVANDSQPLTVYFSLSLLQIMDVDEKNQVLTTNIWLQMSWTDHYLQWNVSEYPGVKTVRFPDGQIWKPDILLYNSADERFDATFHTNVLVNSSGHCQYLPPGIFKSSCPMDLKNFPMDVQTCKLKFGSWSYGGWSLDLQMQEADISGYIPNGEWDLVGIPGKRSERFYECCKEPYPDVTFTVIMRRRMGYYLIQMYIPSLLIVILSWVSFWINMDAAPARVALGITTVLTMTTQSSGSRASLPKVSYVKAIDIWMAVCLLFVFAALLEYAAVNFVSRQHKEFLRLRRRQKRQNKEEDVTRESRFNFSGYGMGHCLQVKDGTAVKATPANPLPQPPKDGDAIKKKFVDRAKRIDTISRAAFPLAFLIFNIFYWITYKIIRHEDVHKK |  | improves the surface expression level |  | 
CODA1237: α7-nAChR(Gly-cys) LBD: GlyRα2 IPD, SEQ ID NO: 65 (protein, CHRNA7 (Cys-loop)/GLRA2) MRCSPGGVWLALAASLLHVSLQGEFQRKLYKELVKNYNPLERPVANDSQPLTVYFSLSLLQIMDVDEKNQVLTTNIWLQMSWTDHYLQWNVSEYPGVKTVRFPDGQIWKPDILLYNSADERFDATFHTNVLVNSSGHCQYLPPGIFKSSCPMDLKNFPMDVQTCKLKFGSWSYGGWSLDLQMQEADISGYIPNGEWDLVGIPGKRSERFYECCKEPYPDVTFTVTMRRRMGYYLIQMYIPSLLIVILSWVSFWINMDAAPARVALGITTVLTMTTQSSGSRASLPKVSYVKAIDIWMAVCLLFVFAALLEYAAVNFVSRQHKEFLRLRRRQKRQNKEEDVTRESRFNFSGYGMGHCLQVKDGTAVKATPANPLPQPPKDGDAIKKKFVDRAKRIDTISRAAFPLAFLIFNIFYWITYKIIRHEDVHKK |  | higher surface expression |  | 
CODA1344: α7-nAChR LBD: GlyRα3 isoform L IPD, SEQ ID NO: 63 (protein, CHRNA7/GLRA3 isoform L) MRCSPGGVWLALAASLLHVSLQGEFQRKLYKELVKNYNPLERPVANDSQPLTVYFSLSLLQIMDVDEKNQVLTTNIWLQMSWTDHYLQWNVSEYPGVKTVRFPDGQIWKPDILLYNSADERFDATFHTNVLVNSSGHCQYLPPGIFKSSCYIDVRWFPFDVQHCKLKFGSWSYGGWSLDLQMQEADISGYIPNGEWDLVGIPGKRSERFYECCKEPYPDVTFTVTMRRRMGYYLIQMYIPSLLIVILSWVSFWINMDAAPARVALGITTVLTMTTQSSGSRASLPKVSYVKAIDIWMAVCLLFVFSALLEYAAVNFVSRQHKELLRFRRKRKNKTEAFALEKFYRFSDMDDEVRESRFSFTAYGMGPCLQAKDGMTPKGPNHPVQVMPKSPDEMRKVFIDRAKKIDTISRACFPLAFLIFNIFYWVIYKILRHEDIHQQQD |  |  | lower responsiveness | 
CODA1343: α7-nAChR(Gly-cys) LBD: GlyRα3 isoform K IPD, SEQ ID NO: 71 (protein, CHRNA7_(Cys-loop)/GLRA3 isoform K) MRCSPGGVWLALAASLLHVSLQGEFQRKLYKELVKNYNPLERPVANDSQPLTVYFSLSLLQIMDVDEKNQVLTTNIWLQMSWTDHYLQWNVSEYPGVKTVRFPDGQIWKPDILLYNSADERFDATFHTNVLVNSSGHCQYLPPGIFKSSCPMDLKNFPMDVQTCKLKFGSWSYGGWSLDLQMQEADISGYIPNGEWDLVGIPGKRSERFYECCKEPYPDVTFTVTMRRRMGYYLIQMYIPSLLIVILSWVSFWINMDAAPARVALGITTVLTMTTQSSGSRASLPKVSYVKAIDIWMAVCLLFVFSALLEYAAVNFVSRQHKELLRFRRKRKNKDDEVRESRFSFTAYGMGPCLQAKDGMTPKGPNHPVQVMPKSPDEMRKVFIDRAKKIDTISRACFPLAFLIFNIFYWVIYKILRHEDIHQQQD |  | higher surface expression | higher responsiveness | higher percentage of surface expressing cells
CODA1345: α7-nAChR LBD: GlyRα3 isoform K IPD, SEQ ID NO: 70 (protein, CHRNA7/GLRA3 isoform K) MRCSPGGVWLALAASLLHVSLQGEFQRKLYKELVKNYNPLERPVANDSQPLTVYFSLSLLQIMDVDEKNQVLTTNIWLQMSWTDHYLQWNVSEYPGVKTVRFPDGQIWKPDILLYNSADERFDATFHTNVLVNSSGHCQYLPPGIFKSSCYIDVRWFPFDVQHCKLKFGSWSYGGWSLDLQMQEADISGYIPNGEWDLVGIPGKRSERFYECCKEPYPDVTFTVTMRRRMGYYLIQMYIPSLLIVILSWVSFWINMDAAPARVALGITTVLTMTTQSSGSRASLPKVSYVKAIDIWMAVCLLFVFSALLEYAAVNFVSRQHKELLRFRRKRKNKDDEVRESRFSFTAYGMGPCLQAKDGMTPKGPNHPVQVMPKSPDEMRKVFIDRAKKIDTISRACFPLAFLIFNIFYWVIYKILRHEDIHQQQD |  | higher surface expression |  | higher percentage of surface expressing cells
